For two molecules, koff and kon results are on record in PMC5259998.

For this test, the target named is H-OspA, freshly biotinylated (Borrelia bavariensis strain SKT-7.1). Nature of the test: BLI; BLItz; biotinylated H-OspA on streptavidin biosensors (250 μg/mL, 150 s); soluble sdAb at 7.25, 14.5 and 29 μM; 120 s association, 120 s dissociation; PBS-T, 0.02% Tween-20; global fitting (1:1). (In general: BLI is a label-free optical method that tracks binding on a fibre tip over time.)

B1: Soluble sdAb produced from PhC11 (VHH)
VHH: QVEVVASGGGLVQAGESLRLSCTASGFTFDNVAAGWFRQAPGKEREGVACISKNGRTTDSADSVKGRFTISRDTAKNTVYLQMDKLKVEDTAEYYCAATYLNTCVLSSPPENIHYWGKGTQVTVS
On to B1, for which the koff (usually the first-order rate constant of dissociation) was 0.0586 s⁻¹ and the on-rate constant (kon) – broadly, the rate constant with which the complex forms – was 13700 M⁻¹ s⁻¹.

B2: Soluble sdAb produced from PhC12 (VHH)
VHH: RREVVESGGGLVQPGESLRVACAASGFTVSSYIMHWVRQAPGKGLEWVSYIDHGGNTVYGDSVKGRFTISRDNAKNTLALQMNSLKPEDTALYYCVRDGDNTHFVAYDYWGQGTLVTVS
With B2, the koff was 0.146 s⁻¹ and the kon was 185 M⁻¹ s⁻¹.
